Assay results from patent US7026443.
Like-named read-outs stand apart in the source and are kept apart here.

Experiments:
[1] = target: HLA-A*1101 (human); test: competition with 125I-labelled standard peptide for purified HLA-A*1101, gel filtration
[2] = target: HLA-A*0101 (human); test: competition with 125I-labelled standard peptide for purified HLA-A*0101, gel filtration
[3] = target: HLA-B*3501 (human); test: competition with 125I-labelled standard peptide for purified HLA, gel filtration
[4] = target: HLA-B*0702 (human); test: as above
[5] = target: HLA-B*5101 (human); test: as above
[6] = target: HLA-B*5301 (human); test: as above
[7] = target: HLA-B*5401 (human); test: as above
[8] = target: HLA-A*0101 (human); test: competition with 125I-labelled standard peptide 944.02 ([..]) for purified HLA-A*0101, gel filtration
[9] = target: HLA-A*1101 (purified HLA class I molecule) (human)
[10] = target: HLA-A*1101 (human); test: competition with 125I-labelled standard probe peptide for purified HLA-A*1101, gel filtration
[11] = target: HLA-A*1101 (human); test: inhibition of 125I-labeled standard peptide binding to purified HLA, gel filtration
[12] = target: HLA-A*0301 (human); test: as above
[13] = target: HLA-A*0301 (human); test: competition with 125I-labeled standard peptide for purified HLA-A*0301, gel filtration
[14] = target: HLA-B*0702 (human); test: competition with 125I-labeled standard peptide for purified HLA, gel filtration
[15] = target: HLA-B*3501 (human); test: competition with 125I-labeled standard probe peptide for purified HLA, gel filtration
[16] = target: HLA-B*0702 (human); test: as above
[17] = target: HLA-B*5101 (human); test: as above
[18] = target: HLA-B*5301 (human); test: as above
[19] = target: HLA-A*0301 (human); test: competitive inhibition of 125I-labelled standard peptide binding to purified HLA-A*0301, gel filtration; details: remark: other sources report otherwise
[20] = remark: other sources report otherwise

B1: … (HPV16 E7, position 44, 9 amino acids) (peptide)
peptide: QAEPDRAHY
modifications: not checked
B1 was tested, and the relative binding ratio (IC50 of standard peptide / IC50 of test peptide) [1] was 0.0002 and the relative binding ratio (IC50 of standard peptide / IC50 of test peptide) [2] was 0.021.

B2: HPV18 E6 peptide … (position 60, 10 amino acids) (peptide)
peptide: IPHAACHKCI
modifications: not checked
With B2 the binding affinity ratio (IC50 of standard peptide / IC50 of test peptide) [3] was 0.0001, the binding affinity ratio (IC50 of standard peptide / IC50 of test peptide) [4] was 0.0065 and the binding affinity ratio (IC50 of standard peptide / IC50 of test peptide) [5] was 0.0046. The binding affinity ratio (IC50 of standard peptide / IC50 of test peptide) [6] was 0.0001 and the binding affinity ratio (IC50 of standard peptide / IC50 of test peptide) [7] was 0.0005.

B3: DTPTLHEY (HPV16 E7, position 4, 8 amino acids) (peptide)
peptide: DTPTLHEY
modifications: not checked
B3 gave a relative binding ratio (IC50 of standard peptide / IC50 of test peptide) [2] of 0.0002.

B4: HPV16 E6 92 GTTLEQQY (peptide)
peptide: GTTLEQQY
modifications: not checked
For B4, the binding affinity ratio (IC50 of standard peptide / IC50 of test peptide) [8] was 0.0006.

B5: HPV18 E6 126-135 peptide … (peptide)
peptide: RFHNIAGHYR
modifications: not checked
In the case of B5, the relative binding ratio (IC50 of standard peptide / IC50 of test peptide) [9] is reported as 0.0057.

B6: HPV18 E1 10-19 peptide … (peptide)
peptide: EGTGCNGWFY
modifications: not checked
Work on B6 yielded a relative binding ratio (IC50 of standard peptide / IC50 of test peptide) [10] of 0.0002.

B7: ETTDLYCY (HPV16 E7, position 18, 8 amino acids) (peptide)
peptide: ETTDLYCY
modifications: not checked
Work on B7 yielded a relative binding ratio (IC50 of standard peptide / IC50 of test peptide) [1, 20] of 0.0001 and a relative binding ratio (IC50 of standard peptide / IC50 of test peptide) [2, 20] of 0.078.

B8: HPV16 E7 4 DTPTLHEY (peptide)
peptide: DTPTLHEY
modifications: not checked
B8 showed a binding affinity ratio (IC50 of standard peptide / IC50 of test peptide) [8] of 0.0002.

B9: HPV18 E1 119 … (peptide)
peptide: NSGQKKAKR
modifications: not checked
B9 showed a binding affinity ratio (IC50 of standard peptide / IC50 of test peptide) [10] of 0.0002.

B10: HPV18 E6 41-50 peptide … (peptide)
peptide: LTEVFEFAFK
modifications: not checked
Binder B10 has a relative binding ratio (IC50 of standard peptide / IC50 of test peptide) [9] of 0.036.

B11: HPV16 E1 peptide … (position 204, 9 amino acids) (peptide)
peptide: KAAMLAKFK
modifications: not checked
B11 gave a binding affinity ratio (IC50 of standard peptide / IC50 of test peptide) [11] of 0.18 and a binding affinity ratio (IC50 of standard peptide / IC50 of test peptide) [12] of 0.11.

B12: HPV18 E7 peptide … (position 55, 10 amino acids) (peptide)
peptide: EPQRHTMLCM
modifications: not checked
In the case of B12, the binding affinity ratio (IC50 of standard peptide / IC50 of test peptide) [3] is reported as 0.0002, the binding affinity ratio (IC50 of standard peptide / IC50 of test peptide) [4] is reported as 0.0026 and the binding affinity ratio (IC50 of standard peptide / IC50 of test peptide) [5] is reported as 0.0003. The binding affinity ratio (IC50 of standard peptide / IC50 of test peptide) [6] was 0.0043 and the binding affinity ratio (IC50 of standard peptide / IC50 of test peptide) [7] was 0.0001.

B13: GTTLEQQY (HPV16 E6, position 92, 8 amino acids) (peptide)
peptide: GTTLEQQY
modifications: not checked
B13 gave a relative binding ratio (IC50 of standard peptide / IC50 of test peptide) [2] of 0.0006.

B14: HPV18 E6 84-92 peptide … (peptide)
peptide: SVYGDTLEK
modifications: not checked
B14 gave a relative binding ratio (IC50 of standard peptide / IC50 of test peptide) [9] of 0.23.

B15: HPV16 E1 peptide … (position 112, 9 amino acids) (peptide)
peptide: AICIEKQSR
modifications: not checked
Work on B15 yielded a relative binding ratio (IC50 of standard peptide / IC50 of test peptide) (ratio to standard peptide) [13] of 0.001, a binding affinity ratio (IC50 of standard peptide / IC50 of test peptide) [11] of 0.0057 and a binding affinity ratio (IC50 of standard peptide / IC50 of test peptide) [12] of 0.001.

B16: QPETTDLY (HPV16 E7, position 16, 8 amino acids) (peptide)
peptide: QPETTDLY
modifications: not checked
B16 gave a relative binding ratio (IC50 of standard peptide / IC50 of test peptide) [2] of 0.001.

B17: HPV16 E1 309 … (peptide)
peptide: PPKLRSTAA
modifications: not checked
B17 was tested, and the binding affinity ratio (IC50 of standard peptide / IC50 of test peptide) [14] was 0.0014.

B18: HPV18 E1 110 peptide … (peptide)
peptide: SPRLQEISL
modifications: not checked
For B18, the binding affinity ratio (IC50 of standard peptide / IC50 of test peptide) [15] was 0.0008, the binding affinity ratio (IC50 of standard peptide / IC50 of test peptide) [16] was 0.62 and the binding affinity ratio (IC50 of standard peptide / IC50 of test peptide) [17] was 0.0005. It also gave a binding affinity ratio (IC50 of standard peptide / IC50 of test peptide) [18] of 0.0002.

B19: HPV16 E7 14 … (peptide)
peptide: DLQPETTDLY
modifications: not checked
For B19, the relative binding ratio (IC50 of standard peptide / IC50 of test peptide) (ratio to standard peptide) [19] was 0.0002 and the binding affinity ratio (IC50 of standard peptide / IC50 of test peptide) [8, 20] was 0.002.

B20: HPV16 E1 peptide … (position 272, 9 amino acids) (peptide)
peptide: GMVVLLLVR
modifications: not checked
Binder B20 has a binding affinity ratio (IC50 of standard peptide / IC50 of test peptide) [11] of 0.0082 and a binding affinity ratio (IC50 of standard peptide / IC50 of test peptide) [12] of 0.0036.
